Our source for the apparent refolding yield (%), nanoDSF melting temperature (Tm) of the refolded peptide/HLA/hβ2m complex and nanoDSF melting temperature of a minor population of the refolded complex values is publication PMC11903679.

Experiment [1] addresses HLA-B*08:01/hβ2m (human). The experiment can be described thus: in vitro refolding + SEC.
Experiment [2] has as its target HLA-A*02:01/hβ2m (human). In words: in vitro refolding + SEC.
Experiment [3] has as its target HLA-B*08:01/hβ2m (human).
Experiment [4] concerns the target HLA-A*02:01/hβ2m (human).
Experiment [5] addresses HLA-E*01:03/hβ2m (human). In words: in vitro refolding + SEC.
Experiment [6] concerns the target HLA-E*01:03/hβ2m (human).
The target in experiment [7] is HLA-E*01:03/hβ2m (human). This is another data set of the same source.

In the case of LSA3 78–87 (…) (peptide), the apparent refolding yield (%) in the experiment with HLA-B*08:01/hβ2m (human) [1] turned out to be 14.7%; with HLA-A*02:01/hβ2m (human) [2], 13.5%. Moreover, the nanoDSF melting temperature (Tm) of the refolded peptide/HLA/hβ2m complex came out at 56.3 °C with HLA-B*08:01/hβ2m (human) [3] and 52.5 °C with HLA-A*02:01/hβ2m (human) [4].

For LSA3 1229–1238 (…) (peptide), the apparent refolding yield (%) with HLA-B*08:01/hβ2m (human) [1] came to 47.6%; with HLA-E*01:03/hβ2m (human) [5] it was 38.1%; in the experiment with HLA-A*02:01/hβ2m (human) [2], 24.6%. The figures for the nanoDSF melting temperature (Tm) of the refolded peptide/HLA/hβ2m complex with HLA-B*08:01/hβ2m (human) [3], in the experiment with HLA-E*01:03/hβ2m (human) [6] and with HLA-A*02:01/hβ2m (human) [4] were 60.5 °C, 61 °C and 58.4 °C, respectively.

As to MSP1 511–520 (…) (peptide), the apparent refolding yield (%) was 44.4% in the experiment with HLA-B*08:01/hβ2m (human) [1] and 19% with HLA-A*02:01/hβ2m (human) [2]. In addition, in the experiment with HLA-A*02:01/hβ2m (human) [4], the nanoDSF melting temperature (Tm) of the refolded peptide/HLA/hβ2m complex was 51.6 °C.

On to MSP1 643–652 (…) (peptide), for which the apparent refolding yield (%) with HLA-B*08:01/hβ2m (human) [1] was 32.6%; with HLA-E*01:03/hβ2m (human) [5], 8%. In addition, the nanoDSF melting temperature (Tm) of the refolded peptide/HLA/hβ2m complex with HLA-B*08:01/hβ2m (human) [3] amounted to 52.9 °C; in the experiment with HLA-E*01:03/hβ2m (human) [6], 38.4 °C. This substance yielded a nanoDSF melting temperature of a minor population of the refolded complex with HLA-E*01:03/hβ2m (human) [7] of 63 °C.

MSP1 823–832 (…) (peptide): in the experiment with HLA-B*08:01/hβ2m (human) [1], the apparent refolding yield (%) is 12.5%. Also, the nanoDSF melting temperature (Tm) of the refolded peptide/HLA/hβ2m complex was 52.6 °C in the experiment with HLA-B*08:01/hβ2m (human) [3] and 63.2 °C with HLA-A*02:01/hβ2m (human) [4].

In the case of MSP1 880–889 (…) (peptide), in the experiment with HLA-B*08:01/hβ2m (human) [1], the apparent refolding yield (%) is 63.3%. The nanoDSF melting temperature (Tm) of the refolded peptide/HLA/hβ2m complex in the experiment with HLA-B*08:01/hβ2m (human) [3] was found to be 51.6 °C; in the experiment with HLA-A*02:01/hβ2m (human) [4] it was 53.6 °C.

Consider SSFP 93–102 (…) (peptide), for which the apparent refolding yield (%) in the experiment with HLA-B*08:01/hβ2m (human) [1] came out at 51.1%; with HLA-A*02:01/hβ2m (human) [2] it was 27.1%. In addition, the nanoDSF melting temperature (Tm) of the refolded peptide/HLA/hβ2m complex stood at 56.3 °C with HLA-B*08:01/hβ2m (human) [3] and 52.5 °C in the experiment with HLA-A*02:01/hβ2m (human) [4].
